Read-outs that look alike come from different tables or passages of the source.
Assays:
[1] = molecular target: membrane-bound IgE-Fc (IgE-Fc-B-cell receptor: 3xFLAG-Cε2-Cε3-Cε4-EMPD-transmembrane-intracellular domain)
[2] = molecular target: membrane-bound IgE-Fc (IgE-Fc-B-cell receptor: 3xFLAG-Cε2-Cε3-Cε4-EMPD-transmembrane-intracellular domain); test: flow cytometry on cells; graded concentrations of His-tagged BiTE on Ramos-Fcε (doxycycline-induced), empty-vector Ramos, Jurkat E6-1 or TIB-153 cells, 30 min on ice in 2% BSA-PBS; detected with anti-pentahis-AlexaFluor 488 (Ramos) or 647 (Jurkat, TIB-153); EC50 from geometric mean fluorescence
[3] = molecular target: membrane-bound IgE-Fc (IgE-Fc-B-cell receptor: 3xFLAG-Cε2-Cε3-Cε4-EMPD-transmembrane-intracellular domain); remark: listed apart in the source
[4] = molecular target: membrane-bound IgE-Fc (IgE-Fc-B-cell receptor: 3xFLAG-Cε2-Cε3-Cε4-EMPD-transmembrane-intracellular domain); remark: listed apart in the source
[5] = molecular target: CD19 (Homo sapiens (endogenous, Ramos EHRB)) (UniProt P15391); test: flow cytometry on cells; graded concentrations of His-tagged BiTE on Ramos-Fcε (doxycycline-induced), empty-vector Ramos, Jurkat E6-1 or TIB-153 cells, 30 min on ice in 2% BSA-PBS; detected with anti-pentahis-AlexaFluor 488 (Ramos) or 647 (Jurkat, TIB-153); EC50 from geometric mean fluorescence
CD19 (Homo sapiens (endogenous, Ramos EHRB)), sequence (P15391 20-556): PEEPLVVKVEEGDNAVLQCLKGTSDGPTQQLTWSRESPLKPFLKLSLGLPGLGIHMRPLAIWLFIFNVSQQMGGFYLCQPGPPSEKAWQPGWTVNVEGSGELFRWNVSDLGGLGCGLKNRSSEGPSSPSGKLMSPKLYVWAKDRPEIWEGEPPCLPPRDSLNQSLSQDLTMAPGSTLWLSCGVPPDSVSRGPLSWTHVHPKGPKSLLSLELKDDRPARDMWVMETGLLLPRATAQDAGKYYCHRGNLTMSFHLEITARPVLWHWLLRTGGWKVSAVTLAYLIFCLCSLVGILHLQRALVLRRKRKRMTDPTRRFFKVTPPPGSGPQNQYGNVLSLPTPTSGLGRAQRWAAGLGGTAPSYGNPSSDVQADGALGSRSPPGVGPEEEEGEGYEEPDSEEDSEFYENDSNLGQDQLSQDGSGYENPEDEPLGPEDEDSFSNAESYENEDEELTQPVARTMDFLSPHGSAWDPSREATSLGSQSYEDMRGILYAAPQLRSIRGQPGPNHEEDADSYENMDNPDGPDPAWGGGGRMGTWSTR

[6] = molecular target: CD19 (Homo sapiens (endogenous, Ramos EHRB)) (UniProt P15391)
[7] = molecular target: CD19 (Homo sapiens (endogenous, Ramos EHRB)) (UniProt P15391); test: flow cytometry on cells; graded concentrations of His-tagged BiTE on Ramos-Fcε (doxycycline-induced), empty-vector Ramos, Jurkat E6-1 or TIB-153 cells, 30 min on ice in 2% BSA-PBS; detected with anti-pentahis-AlexaFluor 488 (Ramos) or 647 (Jurkat, TIB-153); EC50 from geometric mean fluorescence; remark: listed apart in the source

Substance | EC50 [2] | IL-2 promoter-luciferase reporter in CD3-overexpressing T cells, fold activation with Ramos-Fcε target cells, E:T 2.5, at 400 pM [3] | NFAT-luciferase reporter in CD3-overexpressing T cells, fold induction with Ramos-Fcε target cells, E:T 5:1, at 80 pM [4] | further results
blinatumomab (anti-CD19 scFv fused to anti-CD3ε scFv, with C-terminal 8-His-tag) (bispecific antibody) | – | – | – | EC50 [5]: 2.5 nM; NFAT-luciferase reporter in CD3-overexpressing T cells with Ramos-Fcε target cells, E:T 5:1, dilutions of blinatumomab from 1 nM; EC50 of T-cell activation [6]: 0.014 nM; EC50 [7]: 5 nM
omalizumab-based BiTE (anti-IgE scFv of omalizumab fused to anti-CD3ε scFv) (bispecific antibody) | 2 nM | 2 fold | 11 fold | NFAT-luciferase reporter in CD3-overexpressing T cells, fold activation with Ramos-Fcε target cells, E:T 1:1, at 80 pM [1]: 5 fold
quilizumab-based BiTE (anti-IgE EMPD scFv of quilizumab fused to anti-CD3ε scFv) (bispecific antibody) | 40 nM | – | – | –

More lines, main results first:

EC50 [2] | IL-2 promoter-luciferase reporter in CD3-overexpressing T cells, fold activation with Ramos-Fcε target cells, E:T 2.5, at 400 pM [3] | NFAT-luciferase reporter in CD3-overexpressing T cells, fold induction with Ramos-Fcε target cells, E:T 5:1, at 80 pM [4] | Substance | further results
0.4 nM | 4 fold | 9 fold | MEDI4212-based BiTE (anti-IgE scFv of MEDI4212 fused to anti-CD3ε scFv) (bispecific antibody) | NFAT-luciferase reporter in CD3-overexpressing T cells, fold activation with Ramos-Fcε target cells, E:T 1:1, at 400 pM [1]: 10 fold
0.4 nM | – | – | ligelizumab-based BiTE (anti-IgE scFv of ligelizumab fused to anti-CD3ε scFv) (bispecific antibody) | NFAT-luciferase reporter in CD3-overexpressing T cells, fold activation with Ramos-Fcε target cells, E:T 1:1, 400 pM (59-fold) to 2000 pM [1]: 162 fold; IL-2 promoter-luciferase reporter in CD3-overexpressing T cells, fold specific activation with Ramos-Fcε target cells, E:T 2.5, at 2 nM [3]: 7 fold; NFAT-luciferase reporter in CD3-overexpressing T cells, fold induction with Ramos-Fcε target cells, E:T 5:1, at 400 pM [4]: 47 fold

— paper PMC8615095
